# Data as given in the nanobody polyreactivity screen of Harvey et al. (2022).
# Assay: yeast display, Sf9 membrane polyspecificity reagent, FACS + sequencing; frameworks hold sequencing errors
# In short: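 In a synthetic yeast display library (Saccharomyces cerevisiae BJ5465), nanobody expression was induced with galactose for 36–48 hours. FACS gates were set low and high (top ~1%) using anti-HA fluorescence for expression and streptavidin fluorescence for binding of the Sf9 membrane reagent. Each polyreactivity label is drawn from the gate of origin.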
row,Sequence,polyreactivity (PSR sort gate)
1,QVQLVESGGGLVQAGGSLRLSCAASGFIFGYYAMGWYRQAPGKERELVAAISKIGDSTYYADSVKGRFTISRDNAKNTVYLQMNSLKPEDTAVYYCNKVVRNYPRLYGHWGQGTQVTVSS,high polyreactivity
2,QVQLVESGGGLVQAGGSLRLSCAASGFIFGYYAMGWYRQAPGKERELVAAISSRGGSTYYADSVKGRFTISRDNAKNTVYLQMNSLKPEDTAVYYCAVRRVSFRHKFGQYDYWGQGTQVTVSS,high polyreactivity
3,QVQLVESGGGLVQAGGSLRLSCAASGFIFGYYTMGWYRQAPGKERELVAGISYSGGSTYYADSVKGRFTISRDNAKNTVYLQMNSLKPEDTAVYYCNRADYRASYSGQGSYDYWGQGTQVTVSS,high polyreactivity
4,QVQLVESGGGLVQAGGSLRLSCAASGFIFIAYAMGWYRQAPGKERELVAAISKSGGNTYYADSVKGRFTISRDNAKNTVYLQMNSLKPEDTAVYYCATRPGYWRYEYWGQGTQVTVSS,high polyreactivity
5,QVQLVESGGGLVQAGGSLRLSCAASGFIFIYNAMGWFRQAPGKERELVAAISRTGARTYYADSVKGRFTISRDNAKNTVYLQMNSLKPEDTAVYYCAGGVRTRTEEYDYWGQGTKVTVSS,high polyreactivity
6,QVQLVESGGGLVQAGGSLRLSCAASGFIFIYNVMGWYRPAPGKERELVAAINRGGSTKYADSVKGRFTISRDNAKNTVYLQMNSLKPEDTAVYYCAARYDGSRYHYDGYDYWGQGTQVTVSS,low polyreactivity
7,QVQLVESGGGLVQAGGSLRLSCAASGFIFKAYAMGWYRHAPGKERELVAAITSSGGRTYDADSVKGRFTISRDNAKNTVYLQKNSLKPEDTAVYYCNARGVLRTSLYRYDYWGQGTQVTVSS,high polyreactivity
8,QVQLVESGGGLVQAGGSLRLSCAASGFIFKGYAMGWYRQSPGKERELVAVISTSGDRTYYADSVKGRFTISRDNAKNTVYLQMNSLKPEDTAVYYCAAKASPYGGRQKGYDYWGQGTQVTVSS,high polyreactivity
9,QVQLVESGGGLVQAGGSLRLSCAASGFIFKRYAMGWYRQAPGKERELVAAITSGGSTHYADSVKGRFTISRDNAKNTVYLQMNSLKPEDTAVYYCAAVPRVNWSRYVYFWYDYWGQGTQVTVSS,high polyreactivity
10,QVQLVESGGGLVQAGGSLRLSCAASGFIFKTYAMGWYRQAPGKERELVATITRRGGRTYYADSVKGRFTISRDNAKNTVYLQMNSLKPEDTAVYDCAADYALSSLPFDYWGQGTQVTVSS,high polyreactivity
11,QVQLVESGGGLVQAGGSLRLSCAASGFIFKVNAMGWYRQAPGKERELFAAISRRGVTTYYADSVKGRFTISRDNAKNTVYLQMNSLKPEDTAVYYCNRARSYGDTDKLAILADDYWGQGTKVTVSS,high polyreactivity
12,QVQLVESGGGLVQAGGSLRLSCAASGFIFLGNAMGWYRQAPGKERELVASISRGGSTNYADSVKGRFTISRDNAKNTVYLQMTSLKPEDTAVYYCAADLSDKFGYWGQGTQVTVSS,low polyreactivity
13,QVQLVESGGGLVQAGGSLRLSCAASGFIFLRYGMGWYRKAPGKERELVASIDSTGGSTYADSVKGRFTISRDNAKNTVYLQMNSLKPEDTAVYYCAAAYYIVSERDYWGQGTQVTVSS,low polyreactivity
14,QVQLVESGGGLVQAGGSLRLSCAASGFIFLYNAMGWYRQAPGKERELVATITSGGSTNYADSVKGRFTISRDNAKNTVYLQMNSLKPEDTAVYYCAVRRKAYYSYYYHDPYYYWGQGTQVTVSS,low polyreactivity
15,QVQLVESGGGLVQAGGSLRLSCAASGFIFLYYAMGWYIQAPGKERELVAAITTRGGRTYYADSVKGRFTISRDNAKNTVYLQMNSLKPEDTAVYYCAADHLYWGLEYESWGQGTQVTVSS,low polyreactivity
16,QVQLVESGGGLVQAGGSLRLSCAASGFIFNAYAMGWYRQAPGKERELVAAISTRGSNTYYADSVKGRFTISRDNAKNTVYLQMNSLKPEDTAVYDCAARGYVTYSKSNYWGQGTQVTVSS,high polyreactivity
17,QVQLVESGGGLVQAGGSLRLSCAASGFIFNIYAMGWYRQAPGKERELVAAITDDGSTNYADSVKGRFTISRDNAKNTVYLQMNSLKPEDTAVYYCAADDYYKFDYWGQGTQVTVSS,low polyreactivity
18,QVQLVESGGGLVQAGGSLRLSCAASGFIFNLYAMGWYRQAPGKEREFVAGISYSGNTYYADSVKGRFTISRDNAKNTVYLQMNSLKPEDTAVYYCAARRGYNDGYWGQGTKVTVSS,high polyreactivity
19,QVQLVESGGGLVQAGGSLRLSCAASGFIFNRNAMGWYRQAPGKERELVAGINSGGTTKYADSVKGRFTISRDNAKNTVYLQMNSLKPEDTAVYYCNRDWWWDHGRWYRTSRYDYWGQGTQVTVSS,low polyreactivity
20,QVQLVESGGGLVQAGGSLRLSCAASGFIFNRYAMGWYRPAPGNERELVATITRRGGRTYYADSVKGRFTISRDNAKNTVYLQMNSLKPEDTALYYCNADPNVPVETFDYWGQVTQVTVSS,high polyreactivity
21,QVQLVESGGGLVQAGGSLRLSCAASGFIFNSNARGWYRQAPGKERELVAAISGLGGSTYYADSVKGRFTISRDNAKNTVYIQMNSLKPEDTAVYYCAADVTYGTKWAYDYWGQGTQVTVSS,high polyreactivity

row,Sequence,polyreactivity (PSR sort gate)
1,QVQLVESGGGLVQAGGSLRLSCAASGFIFNVNAMGWYRQAPGKERELVAAITGGGGSTYYADSVKGRFTISRDNAKNTVYLQMNSLKPEDTAVYYCARGRTIRSSRTGGSWGQGTQVTVSS,high polyreactivity
2,QVQLVESGGGLVQAGGSLRLSCAASGFIFNWYAMGWYRQAPGKERELVAAITSGGSTNYADSVKGRFTISRDNAKNTVYLQMNSLKTEDTAVYYCAARHWRRYGYWGQGTQVTVSS,high polyreactivity
3,QVQLVESGGGLVQAGGSLRLSCAASGFIFNYNAMGWYRQAPGKERELVAAIRTSSGSTYYADSVKGRFTISRDNAKNTVYLQMNSLKPEDTAVYYCGKTRYSTYSPIYYYWGQGTQVTVSS,high polyreactivity
4,QVQLVESGGGLVQAGGSLRLSCAASGFIFNYYTMGWYRQAPGKERELVAVITGGGGSTYYADSVKGRFTISRDNAKNTVYLQMNSLKPEDTAVYYCAAEWFSWGQGTQITVSS,low polyreactivity
5,QVQLVESGGGLVQAGGSLRLSCAASGFIFPANAMGWYRQAPGKEREFVAAISRSGGTTYYADSVKGRFTISRDNAKNTVYLQMNSLKPEDTAVYYCAARYAIGPGYDYWGQGTQVTVSS,high polyreactivity
6,QVQLVESGGGLVQAGGSLRLSCAASGFIFPDYAMGWYRPAPGKERELVAAINRRGSRTYYADSVKGRFTISRDNAKNTVYLQMNSLKPEDTAVYYCNRDVGKVYAVIYDYWGQGTQVTVSS,high polyreactivity
7,QVQLVESGGGLVQAGGSLRLSCAASGFIFPGHAMGWYRQAPGKERELVAAISTSGGSTYYADSVKGRFTISRDNAKNTVYLQMNSLKPEDTAVYYCATKRPYVDDYGYWGQGTQVTVSS,high polyreactivity
8,QVQLVESGGGLVQAGGSLRLSCAASGFIFPIYAMGWYRQEHGKERELVAGISGSGTSTYYADSVKGRFTISLDYAKNTVYLQMNSLKPVDNAVYYCNAKYPWGNYKSVSYDYWGQGTQVTVSS,high polyreactivity
9,QVQLVESGGGLVQAGGSLRLSCAASGFIFPPYAMGWYRQAPGTERELVAAIRISGGSTYYADSVKGRFTISRDNAKNTVYFHLNSLKPEDTAVYYCAARYVSSTPAFAYYYWGQGTQVTVSS,high polyreactivity
10,QVQLVESGGGLVQAGGSLRLSCAASGFIFPPYDMGWYRQAPGKERELVAGISDVGTTYYADSVKGRYTISRDNAKNPVYLQMNSLKPEDSAVYYCAAESQGDDQFWTGGYDSWGQGTQVTVSS,low polyreactivity
11,QVQLVESGGGLVQAGGSLRLSCAASGFIFPPYTMGWYRQAPGKERELVAAINSGGSTYYADSVKGRFTISRDNAKNTVYLPMNSLKPEDTAVYYCAADTDRALAHFDYWGQGTQVTVSS,low polyreactivity
12,QVQLVESGGGLVQAGGSLRLSCAASGFIFPTYAMGWYRQAPGKERELVATITTNAGGTHYADSVKGRFTISRDNAKNTVYLQMNSLKPEDTAVYYCAAKQYRPKQRKYWTRIYDYWGQGTQVTVSS,low polyreactivity
13,QVQLVESGGGLVQAGGSLRLSCAASGFIFPVNARGGSRQAPGKERELHADISSDGSTNYADSVKGRFTISRDNAKNTVYLQMNSLKPEDTAVYYCAREDNLRHQSDSRYDYWGQGTQVTVSS,low polyreactivity
14,QVQLVESGGGLVQAGGSLRLSCAASGFIFPWYTMGWYRQAPGKERELVAVINQSGGSTYYADSVKGRFTISRDNAKNTVYLQMNSLKPEDTAVYYCAAKSYRGSVKLRWSERGYWGQGTQVTVSS,high polyreactivity
15,QVQLVESGGGLVQAGGSLRLSCAASGFIFPYYAMGWYRQAPGKERELVAAISSGGSTYYADSVKGRFTISRDNAKNSVYLQMNSLKPEDTAVYYCAVRITYWTGEFDYWGQGTQVTVSS,high polyreactivity
16,QVQLVESGGGLVQAGGSLRLSCAASGFIFPYYAMGWYRQAPGKERELVAANSRRGTSTFYADSVKGRFTISRDNAKNNVYLQMNSLKTEDTAVYYCNAEYGIGDDSWVQGTQVTVSS,high polyreactivity
17,QVQLVESGGGLVQAGGSLRLSCAASGFIFQANAMGWYRQAPGKERELVAAIDDGDSTYADSVKGRFTISRDNAKNTVYLQMNSLKPEDTAVYYCATRRNRSYDYWGQGTQVTVSS,low polyreactivity
18,QVQLVESGGGLVQAGGSLRLSCAASGFIFQGYARGWYRQAPGKERELVATISKSGGSTYYADSVKGRFTISRDTAKNTVYLQMTSLKPEDTAVYYCNARPGQSGARFGYWGQGTQVTVSS,high polyreactivity
19,QVQLVESGGGLVQAGGSLRLSCAASGFIFQKYAMGWYRQAPGKERELVAAISRSGGSTYYADSVKGRFTISRDNAKNTDYLQMNSLKPEDTAVYYCAARYKGRAFWMDYWGQGTQVTVSS,high polyreactivity
20,QVQLVESGGGLVQAGGSLRLSCAASGFIFQPYAMGWSRQAPGKERELVAAITSRGGRTYYADSVKGRFTISRDNAKNTVYLQMNSLKPEDTAVYYCNADIYASEYYYWGQGTQLTVSS,low polyreactivity
